The results in this text go back to PMC7046147, “Impaired DNA-binding affinity of novel PAX6 mutations”.

Holding throughout (test): ITC; ITC (iTC200) at 25 °C in buffer C (composition not given; protein stored in 25 mM Hepes pH 7.5, 150 mM NaCl, 5 mM b-ME); 20 uM protein in cell, 200 uM DNA in syringe, one-site model
The target in one data set is PAX6 PD G72S (human, UniProt P26367 4-136, G72S). The conditions noted are these: protein: recombinant.
The target in a further data set is PAX6 paired domain WT (human, UniProt P26367 4-136). The following applies: protein: recombinant, tags: N-terminal His6 removed by TEV.
Sequence of PAX6 paired domain WT (P26367 4-136): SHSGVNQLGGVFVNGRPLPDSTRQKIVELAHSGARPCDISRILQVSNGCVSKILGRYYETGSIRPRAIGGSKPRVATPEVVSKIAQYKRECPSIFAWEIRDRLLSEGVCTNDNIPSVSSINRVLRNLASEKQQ
The next data set addresses PAX6 PD S74G (human, UniProt P26367 4-136, S74G). The following applies: protein: recombinant.
The target in another data set is PAX6 PD G64V (human, UniProt P26367 4-136, G64V). The conditions noted are these: protein: recombinant.
Sequence of PAX6 PD G64V (P26367 4-136 G64V): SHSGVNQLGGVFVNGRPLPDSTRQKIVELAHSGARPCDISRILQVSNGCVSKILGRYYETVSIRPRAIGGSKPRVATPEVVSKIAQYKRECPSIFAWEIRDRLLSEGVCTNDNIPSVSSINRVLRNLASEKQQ
A further data set addresses PAX6 PD G72C (human, UniProt P26367 4-136, G72C). The following applies: protein: recombinant, tags: N-terminal His6 removed by TEV.
In a further data set the target is PAX6 PD G73D (human, UniProt P26367 4-136, G73D). The following applies: protein: recombinant.
Sequence of PAX6 PD G73D (P26367 4-136 G73D): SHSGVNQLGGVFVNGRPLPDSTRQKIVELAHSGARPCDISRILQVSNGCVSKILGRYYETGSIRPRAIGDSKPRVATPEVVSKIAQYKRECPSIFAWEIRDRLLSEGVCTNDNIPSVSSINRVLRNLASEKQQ
In a further data set the target is PAX6 PD P76R (human, UniProt P26367 4-136, P76R). The following applies: protein: recombinant; 5' overhang 2 nt on each strand (AA/TT), 24 bp.
Sequence of PAX6 PD P76R (P26367 4-136 P76R): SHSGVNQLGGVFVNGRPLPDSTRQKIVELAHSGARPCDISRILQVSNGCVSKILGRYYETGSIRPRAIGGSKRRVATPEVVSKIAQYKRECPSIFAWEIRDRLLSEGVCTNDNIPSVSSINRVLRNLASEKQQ
Where [1] appears, read: 5' overhang 2 nt on each strand (AA/TT), 24 bp.

Sequence of PAX6 PD G72S (P26367 4-136 G72S): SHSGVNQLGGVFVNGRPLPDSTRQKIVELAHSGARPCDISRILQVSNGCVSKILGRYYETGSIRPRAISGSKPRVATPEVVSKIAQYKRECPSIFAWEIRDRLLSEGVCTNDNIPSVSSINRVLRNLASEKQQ
Sequence of PAX6 PD S74G (P26367 4-136 S74G): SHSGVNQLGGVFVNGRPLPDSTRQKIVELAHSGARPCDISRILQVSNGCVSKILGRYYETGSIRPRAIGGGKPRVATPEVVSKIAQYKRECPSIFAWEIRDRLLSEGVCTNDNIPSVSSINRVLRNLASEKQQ
Sequence of PAX6 PD G72C (P26367 4-136 G72C): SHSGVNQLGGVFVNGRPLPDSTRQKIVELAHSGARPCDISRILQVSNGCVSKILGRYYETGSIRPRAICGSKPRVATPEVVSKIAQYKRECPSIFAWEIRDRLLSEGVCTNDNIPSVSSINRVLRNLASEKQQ

B1: P6CON (dsDNA)
DNA 1: AAATTTTCACGCTTGAGTTCACAGCT
DNA 2: AGCTGTGAACTCAAGCGTGAAAATTT
Broadly, the Kd is a measure of binding affinity in units of concentration. Turning to B1, the Kd with PAX6 PD G72S (blunt) turned out to be 943 ± 37 nM; with PAX6 paired domain WT (blunt), 925 ± 47 nM; in the data set with PAX6 PD S74G (blunt) it was 1040 ± 45 nM; with PAX6 PD G64V (blunt) it was 1290 ± 78 nM; with PAX6 PD G72C (blunt) it was 1410 ± 110 nM; with PAX6 PD G73D (blunt), 961 ± 48 nM.

B2: CD19 A-ins (dsDNA)
DNA 1: GAATGGGGCACTGAGGCGTGACCACCGC
DNA 2: GCGGTGGTCACGCCTCAGTGCCCCATTC
With B2, the Kd with PAX6 PD G72S (blunt) was found to be 980 ± 43 nM; in the data set with PAX6 paired domain WT (blunt), 952 ± 78 nM; in the data set with PAX6 PD S74G (blunt), 943 ± 31 nM; in the data set with PAX6 PD G64V (blunt), 2170 ± 162 nM; with PAX6 PD G72C (blunt), 5020 ± 360 nM. In addition, in the data set with PAX6 PD G73D (blunt), the binding result was “no binding”.

B3: P6B (dsDNA)
DNA 1: AAGCATTTTCACGCATGAGTGCACAG
DNA 2: TTCTGTGCACTCATGCGTGAAAATGC
B3: the Kd in the data set with PAX6 PD G72S (setting [1]) was 1200 ± 130 nM; with PAX6 PD P76R it was 740 ± 93 nM; in the data set with PAX6 paired domain WT (setting [1]), 411 ± 68 nM; in the data set with PAX6 PD S74G (setting [1]) it was 699 ± 180 nM; in the data set with PAX6 PD G64V (setting [1]) it was 2520 ± 1020 nM; in the data set with PAX6 PD G72C (setting [1]), 579 ± 370 nM. For the same molecule, the Kd with PAX6 PD G73D (setting [1]) was found to be 489 ± 128 nM.
